Experiment in all cases: two-hybrid library CCNG1;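 also: natural log of median RNA to DNA barcode read ratio; higher means stronger binding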
One assay has as its target T1, P4A.
T1 chain: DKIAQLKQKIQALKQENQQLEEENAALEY

Another assay concerns the target T2, P5A.
T2 chain: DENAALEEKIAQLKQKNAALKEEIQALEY

The next assay deals with T3, P6A.
T3 chain: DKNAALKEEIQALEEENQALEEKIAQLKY

The target of another assay is T4, P7A.
T4 chain: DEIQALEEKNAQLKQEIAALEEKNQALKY

Another assay has as its target T5, P8A.
T5 chain: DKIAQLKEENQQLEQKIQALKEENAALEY

In another assay the target is T6, P9A.
T6 chain: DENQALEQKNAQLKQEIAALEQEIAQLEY

The next assay addresses T7, 4H883-bA.
T7 chain: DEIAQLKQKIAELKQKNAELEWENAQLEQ

The target in another assay is T8, 4H908-bA.
T8 chain: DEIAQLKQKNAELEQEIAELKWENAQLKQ

The next assay addresses T9, 4H918-bA.
T9 chain: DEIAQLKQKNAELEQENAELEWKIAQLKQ

For a further assay, the target named is T10, 4H953-bA.
T10 chain: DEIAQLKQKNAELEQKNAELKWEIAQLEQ

The target of a further assay is T11, 4H967-bA.
T11 chain: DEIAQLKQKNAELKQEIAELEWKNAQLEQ

The next assay concerns the target T12, O14-bA.
T12 chain: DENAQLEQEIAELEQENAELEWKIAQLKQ

A further assay concerns the target T13, O5-bP.
T13 chain: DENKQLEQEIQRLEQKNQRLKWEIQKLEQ

A further assay has as its target T14, 4H4038-bH.
T14 chain: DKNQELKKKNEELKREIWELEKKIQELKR

For another assay, the target named is T15, O16-bS.
T15 chain: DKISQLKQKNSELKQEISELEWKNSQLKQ

The target of a further assay is T16, O2-bS.
T16 chain: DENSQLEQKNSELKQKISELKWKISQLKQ

The next assay has as its target T17, O3-bS.
T17 chain: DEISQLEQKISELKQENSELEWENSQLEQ

The target in the next assay is T18, O4-bS.
T18 chain: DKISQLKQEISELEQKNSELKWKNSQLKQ

In a further assay the target is T19, O5-bS.
T19 chain: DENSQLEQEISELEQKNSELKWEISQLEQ

A further assay concerns the target T20, O6-bS.
T20 chain: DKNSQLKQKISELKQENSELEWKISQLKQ

The target of another assay is T21, O7-bS.
T21 chain: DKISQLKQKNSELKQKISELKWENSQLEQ

A further assay has as its target T22, O8-bS.
T22 chain: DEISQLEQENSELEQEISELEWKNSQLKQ

Another assay has as its target T23, 4H3907-bH.
T23 chain: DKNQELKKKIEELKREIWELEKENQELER

Another assay addresses T24, 4H3961-bH.
T24 chain: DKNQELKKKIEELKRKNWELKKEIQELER

The next assay concerns the target T25, 4H470-bH.
T25 chain: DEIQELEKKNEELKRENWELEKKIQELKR

The next assay concerns the target T26, 4H3858-bN.
T26 chain: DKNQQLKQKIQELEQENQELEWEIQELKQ

In another assay the target is T27, 4H3974-bN.
T27 chain: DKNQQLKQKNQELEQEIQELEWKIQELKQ

The next assay has as its target T28, 4H570-bN.
T28 chain: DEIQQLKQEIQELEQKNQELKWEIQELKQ

In another assay the target is T29, 4H850-bN.
T29 chain: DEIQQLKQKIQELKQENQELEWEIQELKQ

For another assay, the target named is T30, O15.
T30 chain: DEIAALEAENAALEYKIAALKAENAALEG

In another assay the target is T31, 4H1899-bA.
T31 chain: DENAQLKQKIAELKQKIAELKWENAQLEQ

The target of a further assay is T32, 4H1985-bA.
T32 chain: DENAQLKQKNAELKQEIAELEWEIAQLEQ

The target in the next assay is T33, 4H2586-bN.
T33 chain: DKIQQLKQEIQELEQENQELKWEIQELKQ

A further assay has as its target T34, 4H3162-bA.
T34 chain: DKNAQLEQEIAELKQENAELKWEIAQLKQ

A further assay has as its target T35, 4H3175-bA.
T35 chain: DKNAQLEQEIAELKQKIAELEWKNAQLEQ

The target of the next assay is T36, 4H3277-bA.
T36 chain: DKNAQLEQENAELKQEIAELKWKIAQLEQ

Another assay addresses T37, 4H3298-bA.
T37 chain: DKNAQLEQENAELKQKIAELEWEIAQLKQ

Another assay addresses T38, 4H3462-bA.
T38 chain: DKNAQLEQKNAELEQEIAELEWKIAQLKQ

A further assay deals with T39, 4H3497-bA.
T39 chain: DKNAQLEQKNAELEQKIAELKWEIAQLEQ

The next assay has as its target T40, 4H3613-bA.
T40 chain: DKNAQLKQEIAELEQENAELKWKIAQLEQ

The target of another assay is T41, 4H3628-bA.
T41 chain: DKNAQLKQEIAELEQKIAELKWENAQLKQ

The next assay concerns the target T42, 4H3817-bA.
T42 chain: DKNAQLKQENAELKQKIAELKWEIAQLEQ

The next assay has as its target T43, 4H3858-bA.
T43 chain: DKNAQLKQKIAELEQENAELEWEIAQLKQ

In a further assay the target is T44, 4H3926-bA.
T44 chain: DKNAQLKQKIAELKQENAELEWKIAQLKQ

A further assay addresses T45, 4H3974-bA.
T45 chain: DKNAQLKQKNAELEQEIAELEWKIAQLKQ

In a further assay the target is T46, 4H570-bA.
T46 chain: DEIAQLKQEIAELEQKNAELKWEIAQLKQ

The target in the next assay is T47, 4H591-bA.
T47 chain: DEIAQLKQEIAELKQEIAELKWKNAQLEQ

Another assay addresses T48, 4H626-bA.
T48 chain: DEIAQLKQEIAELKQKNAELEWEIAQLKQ

The next assay addresses T49, 4H850-bA.
T49 chain: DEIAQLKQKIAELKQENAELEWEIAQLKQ

The target of a further assay is T50, 4H906-bA.
T50 chain: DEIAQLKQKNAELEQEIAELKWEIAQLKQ

The next assay addresses T51, 4H3129-bA.
T51 chain: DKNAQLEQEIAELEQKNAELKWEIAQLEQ

The target of a further assay is T52, 4H3172-bA.
T52 chain: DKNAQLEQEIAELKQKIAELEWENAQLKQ

The next assay concerns the target T53, 4H3414-bA.
T53 chain: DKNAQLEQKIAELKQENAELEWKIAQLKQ

Another assay concerns the target T54, 4H3631-bA.
T54 chain: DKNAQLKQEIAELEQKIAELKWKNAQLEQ

A further assay concerns the target T55, 4H3638-bA.
T55 chain: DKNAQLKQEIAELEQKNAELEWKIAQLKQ

In another assay the target is T56, 4H570-bH.
T56 chain: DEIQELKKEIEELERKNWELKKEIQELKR

Another assay concerns the target T57, 4H584-bA.
T57 chain: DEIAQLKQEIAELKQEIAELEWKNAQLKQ

The next assay has as its target T58, 4H619-bA.
T58 chain: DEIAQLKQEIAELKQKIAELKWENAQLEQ

The target in a further assay is T59, O8-bN.
T59 chain: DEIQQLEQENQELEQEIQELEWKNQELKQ

Experimental findings from paper PMC10397247 are described below.

B1: P4A (peptide)
chain: DKIAQLKQKIQALKQENQQLEEENAALEY
Take B1: the interaction score was -2.18 in the assay with P4A; -2.12 with P5A; -1.35 with P6A; -2.13 with P7A; -1.42 in the assay with P8A; -1.08 in the assay with P9A.

B2: 4H883-bA (peptide)
chain: DEIAQLKQKIAELKQKNAELEWENAQLEQ
Take B2: the interaction score with 4H883-bA was -0.18; with 4H908-bA, -1.33; with 4H918-bA it was -1.15; with 4H953-bA it was -1.68; in the assay with 4H967-bA it was -1.69; in the assay with O14-bA, 0.814. In the assay with O5-bP, this molecule gave an interaction score of -1.74.

B3: 4H4038-bH (peptide)
chain: DKNQELKKKNEELKREIWELEKKIQELKR
In the case of B3, in the assay with 4H4038-bH, the interaction score is 0.656.

B4: O16-bS (peptide)
chain: DKISQLKQKNSELKQEISELEWKNSQLKQ
For the molecule B4, the interaction score with O16-bS was -1.23; with O2-bS, -0.368; with O3-bS it was -1.15; in the assay with O4-bS, -0.194; with O5-bS, -3.22; with O6-bS, -0.0299. The interaction score in the assay with O7-bS was -0.709; with O8-bS it was -1.97.

B5: 4H3907-bH (peptide)
chain: DKNQELKKKIEELKREIWELEKENQELER
In the case of B5, the interaction score was 0.462 with 4H3907-bH, -0.402 in the assay with 4H3961-bH, -0.272 with 4H4038-bH and -0.458 in the assay with 4H470-bH.

B6: 4H3858-bN (peptide)
chain: DKNQQLKQKIQELEQENQELEWEIQELKQ
In the case of B6, the interaction score was -0.115 with 4H3858-bN; -1.21 with 4H3974-bN; 0.143 in the assay with 4H570-bN; -1.15 with 4H850-bN; -1.67 with O15.

B7: 4H1899-bA (peptide)
chain: DENAQLKQKIAELKQKIAELKWENAQLEQ
For the molecule B7, the interaction score with 4H1899-bA is -0.612; with 4H1985-bA, 0.619; in the assay with 4H2586-bN, -1.99; with 4H3162-bA it was -1.28; with 4H3175-bA, -1.03; with 4H3277-bA it was -1.41. Besides, the interaction score was -0.142 with 4H3298-bA; -0.31 with 4H3462-bA; -0.482 with 4H3497-bA; -1.23 with 4H3613-bA; 0.582 with 4H3628-bA; -0.216 in the assay with 4H3817-bA. For the same molecule, the interaction score with 4H3858-bA is -0.565; with 4H3926-bA, -1.03; in the assay with 4H3974-bA it was -0.528; with 4H570-bA, 0.517; with 4H591-bA, -1.45; in the assay with 4H626-bA, -1.38. Also, the interaction score with 4H850-bA is -0.973; in the assay with 4H906-bA it was -0.765.

B8: 4H1985-bA (peptide)
chain: DENAQLKQKNAELKQEIAELEWEIAQLEQ
On to B8, for which the interaction score with 4H1985-bA was -0.898; with 4H3129-bA, -1.14; with 4H3162-bA it was -1.66; in the assay with 4H3172-bA it was -0.781; in the assay with 4H3175-bA it was -1.53; in the assay with 4H3277-bA it was -0.983. Besides, the interaction score with 4H3298-bA is -0.906; in the assay with 4H3414-bA, -1.09; with 4H3462-bA, -0.708; in the assay with 4H3497-bA, -1.03; with 4H3613-bA it was -1.14; in the assay with 4H3628-bA, -1.35. The interaction score with 4H3631-bA is -1.21; with 4H3638-bA, -0.944; in the assay with 4H3817-bA it was -0.287; with 4H3858-bA, -1.31; in the assay with 4H3926-bA, -1.07; in the assay with 4H3974-bA, -0.265. Besides, the interaction score in the assay with 4H570-bA was -1.97; with 4H570-bH it was -0.714; in the assay with 4H584-bA, -1.42; with 4H591-bA it was -1.46; with 4H619-bA, -0.916; in the assay with 4H626-bA, -1.19. In addition, the interaction score with 4H850-bA is -1.45; with 4H906-bA, -1.08; with 4H953-bA, -1.8; in the assay with O8-bN, -2.01.
